From IntAct's records for PubMed 18676636

B1: Forkhead box protein C1 (Homo sapiens), Q12948 (parent)
chain: MQARYSVSSPNSLGVVPYLGGEQSYYRAAAAAAGGGYTAMPAPMSVYSHPAHAEQYPGGMARAYGPYTPQPQPKDMVKPPYSYIALITMAIQNAPDKKITLNGIYQFIMDRFPFYRDNKQGWQNSIRHNLSLNECFVKVPRDDKKPGKGSYWTLDPDSYNMFENGSFLRRRRRFKKKDAVKDKEEKDRLHLKEPPPPGRQPPPAPPEQADGNAPGPQPPPVRIQDIKTENGTCPSPPQPLSPAAALGSGSAAAVPKIESPDSSSSSLSSGSSPPGSLPSARPLSLDGADSAPPPPAPSAPPPHHSQGFSVDNIMTSLRGSPQSAAAELSSGLLASAAASSRAGIAPPLALGAYSPGQSSLYSSPCSQTSSAGSSGGGGGGAGAAGGAGGAGTYHCNLQAMSLYAAGERGGHLQGAPGGAGGSAVDDPLPDYSLPPVTSSSSSSLSHGGGGGGGGGGQEAGHHPAAHQGRLTSWYLNQAGGDLGHLASAAAAAAAAGYPGQQQNFHSVREMFESQRIGLNNSPVNGNSSCQMAFPSSQSLYRTSGAFVYDCSKF

Variants of: B1
Details: with C1QBP

| Variant | effect of a mutation on the interaction |
| --- | --- |
| F112S | disrupting interaction |
